Data reported in patent US20220259593A1, “CONTROL OF MAMMALIAN GENE DOSAGE USING CRISPR” (The Regents of the University of California, priority 2019, published 2022).

System: K562 CRISPRi cells
Test: Constant region variant library pooled growth screen, K562
Type: cell-based, human
Settings: sgRNA constant region variants; activity relative to the original, un-modified constant region cr995
Procedure, shortened: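 Library of sgRNA constant-region variants, each paired with 36 targeting sequences (essential-gene and non-targeting), transduced in duplicate into K562 CRISPRi cells, puromycin-selected and grown 4–8 days at >2000× coverage. Activity per variant is its growth phenotype normalised to the same targeting sequence with unmodified constant region.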

Molecule	Mean relative activity
cr188 (nucleic acid, listed as DNA, chemistry not fully specified) guide: GTTTAAGAGCTAAGCTGGAAACAGCATAGCAAGTTTAAATAATGCTAGTCAGTTATCAACCTGAAAAGGTGGCACCGAGTCGGTGCT	0.04409
cr625 (nucleic acid, listed as DNA, chemistry not fully specified) guide: GTTTAAGAGCTAAGCTGGAAACAGCATAGCAAGCTTAAATAAGGCTAGTCCGTTATCAACTTGAAAAAGTGGCACCTAGTAGGTGCT	0.04332
cr138 (nucleic acid, listed as DNA, chemistry not fully specified) guide: GTTTAAGAGCTAAGCTGGAAACAGCATAGCAAGCTTAAATAAGGCTAGTCCGTTATCAACTTGAAAAAGTGGCACGGAGTCCGTGCT	0.04307
cr211 (nucleic acid, listed as DNA, chemistry not fully specified) guide: GTTTAAGAGCTAAGCTGGAAACAGCATAGCAAGTTTAAATAAGTCTAGTCCGTTATCAACTTGAAAAAGTGGCACCGAGTCGGTGCT	0.04075
cr708 (nucleic acid, listed as DNA, chemistry not fully specified) guide: GTTTAAGAGCTAAGCTGGAAACAGCATAGCAAGTTTAAATAATGCTAGTCAGTTATCAACTTGAAAAAGTGGCACCGAGTCGGTGCT	0.0394
cr222 (nucleic acid, listed as DNA, chemistry not fully specified) guide: GTTTAAGAGCTAAGCTGGAAACAGCATAGCAAGGTTAAATAAGGCTAGTCCGTTATCAGCTTGAAAAAGCGGCACCGAGTCGGTGCT	0.03915
cr107 (nucleic acid, listed as DNA, chemistry not fully specified) guide: GTTTAAGAGCTAAGCTGGAAACAGCATAGCAAGTTTAAATAATGCTAGTCAGTTATCAACTTGAAAAAGTGGCAACGAGTCGTTGCT	0.03837
cr767 (nucleic acid, listed as DNA, chemistry not fully specified) guide: GTTTAAGAGCTAAGCTGGAAACAGCATAGCAAGATTAAATAAGGCTAGTCCGTTATCAACTTGAAAAAGTGGCACCGTGTCGGTGCT	0.0381
cr208 (nucleic acid, listed as DNA, chemistry not fully specified) guide: GTTTAAGAGCTAAGCTGGAAACAGCATAGCAAGTTTAAATAAGGCTAGTCCTTCATCAACTTGAAGAAGTGGCACCGAGTCGGTGCT	0.03711
cr335 (nucleic acid, listed as DNA, chemistry not fully specified) guide: GTTTAAGAGCTAAGCTGGAAACAGCATAGCAAGTTTAAATAAGGCTAGTCCGTTATCAACTTGAAAAAGTGACGCCGAGTCGGCGTT	1.036
cr498 (nucleic acid, listed as DNA, chemistry not fully specified) guide: GTTTAAGAGCTAAGCTGGAAACAGCATAGCAAGTTTAATTAAGGCTAGTCCGTTATCAACTTGAAAAAGTGGCACCGAGTCGGTGCT	0.03563
cr681 (nucleic acid, listed as DNA, chemistry not fully specified) guide: GTTTAAGAGCTAAGCTGGAAACAGCATAGCAAGTTTAAATAAGGCTACTCCGTTATTAACTTGAAAAAGTGGCACCGAGTCGGTGCT	0.03559
cr078 (nucleic acid, listed as DNA, chemistry not fully specified) guide: GTTTTGGAGCTAAGCTGGAAACAGCATAGCAAGTTTAAATAAGGCTAGTCCGTTATCAACTTGAAAAAGTGGCACCGAGTCGGTGCT	0.03507
cr743 (nucleic acid, listed as DNA, chemistry not fully specified) guide: GTTTAAGAGCTAAGCTGGAAACAGCATAGCAACTTTAAATAAGGCTAGTCCGTTATCAACTTGAAAAAGTGGCGCCGAGTCGGCGCT	0.03495
cr202 (nucleic acid, listed as DNA, chemistry not fully specified) guide: GTTTAAGAGCTAAGCTGGAAACAGCATAGCAACTTTAAATAAGGCTAGTCCGTTATCAACTTGAAAAAGTGACACCGAGTCGGTGTT	0.03423
cr526 (nucleic acid, listed as DNA, chemistry not fully specified) guide: GTTTAAGAGCTAAGCTGGAAACAGCATAGCAAGTTTAAATAATGCTAGTCAGTTATCAACTTGAAAAAGTGGCGCCGAGTCGGCGCT	0.03359

Molecule	Mean relative activity
cr738 (nucleic acid, listed as DNA, chemistry not fully specified) guide: GTTTAAGAGCTAAGCTGGAAACAGCATAGCATGTTTAAATTAGGCTAGTCCGTTATCAACTTGAAAAAGTGGCACCGAGTCGGTGCT	0.03306
cr241 (nucleic acid, listed as DNA, chemistry not fully specified) guide: GTTTAAGAGCTAAGCTGGAAACAGCATAGCAACTTTAAATAAGGCTAGTCCGTTATCAACATGAAAATGTGGCACCGAGTCGGTGCT	0.03304
cr314 (nucleic acid, listed as DNA, chemistry not fully specified) guide: GTTTAAGAGCTAAGCTGGAAACAGCATAGCAAGGTTAAATAAGGCTAGTCCGTTATCAACTTGAAAAAGTGGAACCGAGTCGGTTCT	0.03303
cr007 (nucleic acid, listed as DNA, chemistry not fully specified) guide: GTATAAGAGCTAAGCTGGAAACAGCATAGCAAGTTTAAATAAGGCTAGTCCGTTATCAACTTGAAAAAGTGGCACCGAGTCGGTGCT	0.03285
cr357 (nucleic acid, listed as DNA, chemistry not fully specified) guide: GTTTAAGAGCTAAGCTGGAAACAGCATAGCAAGGTTAAATAAGGCTAGTCCGTTATCAACTTGAAAAAGTGGCTCCGAGTCGGAGCT	0.03253
cr574 (nucleic acid, listed as DNA, chemistry not fully specified) guide: GTTTAAGAGCTAAGCTGGAAACAGCATAGCAAGTTTCAATAAGGCTAGTCCGTTATCAACTTGAAAAAGTGGCACCGAGTCGGTGCT	0.03217
cr313 (nucleic acid, listed as DNA, chemistry not fully specified) guide: GTTTAAGAGCTAAGCTGGAAACAGCATAGCAAGTTTAAATAAGGCTAGTCCGTTATCAACTTGAAAAAGTGGGTGGGAGTCGCTCCT	0.03202
cr593 (nucleic acid, listed as DNA, chemistry not fully specified) guide: GTTTAAGAGCTAAGCTGGAAACAGCATAGCAAGTTTAAATAAGGCTAGTCCGTTATCACCTTGAAAAAGGGGCACCGAGTCGGTGCT	1.035
cr571 (nucleic acid, listed as DNA, chemistry not fully specified) guide: GTTTAAGAGCTAAGCTGGAAACAGCATAGCAAGGTTAAATAAGGCTAGTCCGTTATCAACTCGAAAGAGTGGCACCGAGTCGGTGCT	0.03194
cr151 (nucleic acid, listed as DNA, chemistry not fully specified) guide: GTTTAAGAGCTAAGCTGGAAACAGCATAGCAACTTTAAATAAGGCTAGTCCGGTATCAACTTGAAAAAGTGGCACCGAGTCGGTGCT	0.03186
cr880 (nucleic acid, listed as DNA, chemistry not fully specified) guide: GTTTAAGAGCTAAGCTGGAAACAGCATAGCAAGGTTAAATAAGGCTAGTCCGTTATCAACTTGAAAAAGTGGCATCGAGTCGATGCT	0.03183
cr301 (nucleic acid, listed as DNA, chemistry not fully specified) guide: GTTTAAGAGCTAAGCTGGAAACAGCATAGCAACTTTAAATAAGGCTAGTCCGTTATCAACTTGAAAAAGTGGCACCGATTCGGTGCT	0.03132
cr988 (nucleic acid, listed as DNA, chemistry not fully specified) guide: GTTTAAGAGCTAAGCTGGAAACAGCATAGCAACTTTAAATAAGGCTAGTCCGTTATCAAGTTGAAAAACTGGCACCGAGTCGGTGCT	0.0305
cr716 (nucleic acid, listed as DNA, chemistry not fully specified) guide: GTTTAAGAGCTAAGCTGGAAACAGCATAGCCATTTTAAATAAGGCTAGTCCGTTATCAACTTGAAAAAGTGGCACCGAGTCGGTGCT	0.03033
cr312 (nucleic acid, listed as DNA, chemistry not fully specified) guide: GTTTAAGAGCTAAGCTGGAAACAGCATAGCAAGGTTAAATAAGGCTAGTCCGTTATCAACGTGAAAACGTGGCACCGAGTCGGTGCT	0.03032
